# Source: US9725518B2, “Antibodies that bind to Jagged 1” (Cancer Research Technology Limited, priority 2013, dated 2017)
# Positions count from the first letter of the chain named.
# B1: J1-183D variant 15: humanised/de-immunised J1-183D: J1-183D_VL_4 + J1-183D_VH_3 (antibody, V domains shown)
# VH: QVQLVQSGAELKKPGASVKVSCKVSGYAFTDYAIHWVRQAPGQGLEWMGIINTYYGDSKYAQKFQGRVTMTVDTSTSTAYMELSSLRSEDTAVYYCARGYDGFAYWGQGTLVTVSSASTKGP
# VL: DIQMTQSPSSLSASVGDRVTITCRTSENIYSYLTWYQQKPGKAPKLLIYHAKILDSGVPSRFSGSGSGTDFTLTISSLQPEDFATYYCQHHYDIPWTFGGGTKLEIKRT
# B2: J1-183D variant 12: humanised/de-immunised J1-183D: J1-183D_VL_3 + J1-183D_VH_4 (antibody, V domains shown)
# VH: B1 VH with L11V, V24A, A28T
# VL: B1 VL with H50N
# B3: J1-183D variant 16: humanised/de-immunised J1-183D: J1-183D_VL_4 + J1-183D_VH_4 (antibody, V domains shown)
# VH: B1 VH with L11V, V24A, A28T
# VL: B1 VL
# B4: J1-65D chimeric: chimeric antibody with unaltered CDRs: J1-65D_VL + J1-65D_VH (antibody, V domains shown)
# VL: DIQLTQSPASLSASVGETVTITCRASGNIHNYLAWYQQKQGKSPQLLVYNAKTLADDIPSRFSGSGSGTQYSLKINSLQPEDFGSYYCQHFWSAPWTFGGGTKLEIK
# VH: QVQLQQPGAELVRPGASVKLSCKALGYTFTDYEMHWVKETPVHGLEWIGAIQPGGGGTAYNQKFKGKATLTADKSSSTAYMELSSLTSEDSAVYYCTRRGYDDYPFAYWGQGTLVTVSS
# Target: T1, N1 binding to cell surface expressed hJ1 (Homo sapiens, UniProt P78504)
# T1 construct: cell expressed full length human J1 (hJ1; HEK293 transfectants); expressed in transfected cells; host or cells: HEK293
# Assay: Notch binding blocking assay (FACS): N1 EGF11-13 beads staining human J1-expressing cells
# Parameters: key: +: Complete blocking; X: No blocking
# Settings: final antibody concentration 0.2 μg/ml
# Protocol: To functionally identify mAbs with the capacity to disrupt the J1-N1 protein:protein interaction, hybridoma culture supernatants were tested in a FACS-based binding assay. Biotinylated soluble human N1 EGF11-13 recombinant protein was bound to avidin-coated beads and used to stain J1-expressing cells in the presence or absence of each mAb that recognised cell surface hJ1 by FACS. […] The four blocking antibodies of the invention were also able to block the binding of recombinant […] to a biotin-tagged J1 DSL-EGF3 recombinant protein in an ELISA assay (FIG. 1B). […] The four blocking mAbs of the invention were purified from serum-free culture supernatants and equal concentrations of purified antibodies were used to compare their activity in subsequent assays (unless hybridoma supernatant was specified). Sequence conservation across the DSL domain raised the possibility that the J1 mAbs may also be able to bind the Jagged 2 (J2) protein. Antibody binding specificity was initially tested by immunocytochemical labelling of cytospin samples of hJ1 and hJ2 transfectants (FIG. 2). All antibodies stained J1 transfectants but none stained the J2 transfected cells, and J2 expression in the same experiment was confirmed using a commercial anti-J2 antibody. The specificity of the purified mAbs was further investigated in mammalian cells transfected with hJ2, human Delta-like ligand 4 (hDLL4), or mJ1 (FIG. 3). Transfectants were FACS stained with 10 μg/ml of each of the four blocking mAbs.
# To test the blocking efficiencies of the J1 mAbs, purified mAbs were titrated to determine the concentration required to block recombinant N1 binding to cell surface expressed hJ1. Beads coated with a bacterially-expressed N1 EGF11-13 protein were used to stain the hJ1-expressing cells in the presence of various concentrations of mAbs.
# The FACS-based binding assay using biotinylated soluble human N1 EGF11-13 recombinant protein bound to avidin-coated fluorescent beads to stain J1-expressing cells was performed using a dilution series of each variant mAb to test their ability to block J1 binding to N1 by FACS (Table 7). […] Thus 12/16 J1-65D1 variants V1-12 and all J1-183D variants have the desired binding and blocking activity.
# Human N1 EGF11-13 (411-526) was expressed in E. coli, refolded in vitro and labelled with purple fluorescent avidin-coated beads (Spherotech) as previously described. HEK293 cells transfected with human J1 or B16F10 cells transfected with mouse J1 were stained with N1 fluorescent beads in the presence of J1 antibody supernatants or purified antibody (murine, chimeric or humanised) diluted in HBBS/10% FCS. Cells were washed and re-suspended in staining buffer before being analysed with a FACSCalibur and data analysis with CellQuest. HEK293 cells transfected with human Jagged 2 and B16F10 cells transfected with human and mouse DLL4 were stained similarly to test blocking specificity.
# T1 sequence (P78504 34-1218): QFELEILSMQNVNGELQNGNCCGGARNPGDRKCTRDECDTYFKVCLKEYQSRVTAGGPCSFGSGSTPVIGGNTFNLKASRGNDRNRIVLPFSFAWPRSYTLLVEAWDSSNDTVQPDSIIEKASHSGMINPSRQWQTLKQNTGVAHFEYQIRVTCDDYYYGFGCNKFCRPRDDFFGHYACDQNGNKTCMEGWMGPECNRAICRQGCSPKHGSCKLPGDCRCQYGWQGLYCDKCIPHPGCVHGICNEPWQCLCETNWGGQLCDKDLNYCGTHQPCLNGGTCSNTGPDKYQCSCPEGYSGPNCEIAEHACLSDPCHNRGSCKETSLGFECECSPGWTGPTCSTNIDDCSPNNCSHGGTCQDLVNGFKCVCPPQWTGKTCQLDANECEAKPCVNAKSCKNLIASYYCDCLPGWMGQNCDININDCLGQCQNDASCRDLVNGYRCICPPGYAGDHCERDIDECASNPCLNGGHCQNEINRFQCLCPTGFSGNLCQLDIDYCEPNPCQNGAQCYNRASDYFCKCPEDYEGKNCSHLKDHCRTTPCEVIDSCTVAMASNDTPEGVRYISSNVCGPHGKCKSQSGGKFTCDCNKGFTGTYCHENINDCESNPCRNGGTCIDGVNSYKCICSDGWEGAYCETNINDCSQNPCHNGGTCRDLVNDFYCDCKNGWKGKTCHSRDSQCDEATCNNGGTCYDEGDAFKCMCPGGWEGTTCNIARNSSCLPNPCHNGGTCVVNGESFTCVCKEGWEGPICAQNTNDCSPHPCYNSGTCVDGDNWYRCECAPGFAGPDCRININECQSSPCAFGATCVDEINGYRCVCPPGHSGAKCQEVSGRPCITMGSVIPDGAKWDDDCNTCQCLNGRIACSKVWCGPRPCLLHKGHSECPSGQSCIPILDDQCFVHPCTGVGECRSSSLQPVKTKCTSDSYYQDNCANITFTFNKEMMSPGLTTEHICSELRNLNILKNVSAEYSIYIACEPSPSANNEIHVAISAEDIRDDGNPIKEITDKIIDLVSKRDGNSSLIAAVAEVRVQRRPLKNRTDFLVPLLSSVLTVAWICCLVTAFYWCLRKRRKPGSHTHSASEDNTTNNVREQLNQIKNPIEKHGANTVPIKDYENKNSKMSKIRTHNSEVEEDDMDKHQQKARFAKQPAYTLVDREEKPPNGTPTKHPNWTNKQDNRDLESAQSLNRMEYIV
row,Blocking of Notch1 binding to cell surface Jagged 1,Molecule
1,X,B1
2,X,B2
3,X,B3
4,X,B4

# Same assay, conditions: final antibody concentration 0.4 μg/ml
row,Blocking of Notch1 binding to cell surface Jagged 1,Molecule
1,+ (Complete blocking),B1
2,+ (Complete blocking),B2
3,+ (Complete blocking),B3
4,+ (Complete blocking),B4

# Same assay, conditions: final antibody concentration 0.6 μg/ml
row,Blocking of Notch1 binding to cell surface Jagged 1,Molecule
1,+ (Complete blocking),B1
2,+ (Complete blocking),B2
3,+ (Complete blocking),B3
4,+ (Complete blocking),B4

# Same assay, conditions: final antibody concentration 1.0 μg/ml
row,Blocking of Notch1 binding to cell surface Jagged 1,Molecule
1,+ (Complete blocking),B1
2,+ (Complete blocking),B2
3,+ (Complete blocking),B3
4,+ (Complete blocking),B4

# Tested on: MDA-MB-231 spheroids
# Assay: Spheroid assay (3-D growth), MDA-MB-231
# Type: cell-based, human
# Settings: humanised variants 5 μg/ml
# From the text: Similar findings were also reported for the Merck anti-N1 mAbs when tested on the LS-1034 cell line. As cell-cell contact is required to activate Notch signalling a spheroid-based 3-D growth model was used to test the ability of the J1 mAbs to block tumour growth. Furthermore, the 3-D model better mimics in vivo conditions including hypoxia and acidosis, allowing evaluation of the mAbs effect in a more realistic setting. Spheroids were generated from MDA-MB-231 breast cancer cells and the ability of different concentrations of the J1-65D mAb to inhibit their growth was evaluated.
# Cells were harvested and resuspended in 2.5% Matrigel (BD)-complete DMEM medium. Cell suspension was plated on low-adherence 96-well plates (Corning) (200 μl/well) and spheroids, of approximately fixed cell number (5×10^3 cells for MDA-MB-231 and MDA-MB-468 cell lines; 2×10^3 for MCF7 cells) were then generated by spinning plates at 1800 rpm for 10 minutes. The following day, pictures of the spheroids were taken (day 1) and treatments were added (mAbs were used at 10 μg/ml [5 μg/ml for humanised antibodies] while DBZ was used at the concentration of 100 nM). In some experiments Paclitaxel (1 nM) and Doxorubicin (20 nM) were used in combination with J1-65D mAb treatment. Every 2 days pictures were taken and half of the medium was replaced with fresh one containing mAb/drug. At the end of the experiment, spheroids were either lysed for RNA extraction, were processed and paraffin-embedded for immunohistochemical analysis or were dissociated by pipetting and trypsinization into single cell suspensions for FACS analysis. Spheroid size was evaluated by image analysis using ImageJ software.
row,Molecule,spheroid growth inhibition
1,B1,increasingly less effect
2,B2,increasingly less effect

# Tested on: not listed separately
# Assay: Soluble aggregates of transiently expressed antibodies
# Type: physicochemical
# Settings: Protein A purified antibody
# From the text: The protein yield of these antibodies, their levels of soluble aggregates and their binding affinity to the immunogen (J1-DE3) are illustrated in (Table 6).
row,Molecule,% soluble aggregate [%]
1,B1,2.21
2,B2,0.66
3,B3,0.72
4,B4,0
